Laboratory results reported in patent publication US20240116995A1 (89BIO, published 2024).

T1: human β-Klotho (human, UniProt Q86Z14 1-1044)
T1 sequence (looked up): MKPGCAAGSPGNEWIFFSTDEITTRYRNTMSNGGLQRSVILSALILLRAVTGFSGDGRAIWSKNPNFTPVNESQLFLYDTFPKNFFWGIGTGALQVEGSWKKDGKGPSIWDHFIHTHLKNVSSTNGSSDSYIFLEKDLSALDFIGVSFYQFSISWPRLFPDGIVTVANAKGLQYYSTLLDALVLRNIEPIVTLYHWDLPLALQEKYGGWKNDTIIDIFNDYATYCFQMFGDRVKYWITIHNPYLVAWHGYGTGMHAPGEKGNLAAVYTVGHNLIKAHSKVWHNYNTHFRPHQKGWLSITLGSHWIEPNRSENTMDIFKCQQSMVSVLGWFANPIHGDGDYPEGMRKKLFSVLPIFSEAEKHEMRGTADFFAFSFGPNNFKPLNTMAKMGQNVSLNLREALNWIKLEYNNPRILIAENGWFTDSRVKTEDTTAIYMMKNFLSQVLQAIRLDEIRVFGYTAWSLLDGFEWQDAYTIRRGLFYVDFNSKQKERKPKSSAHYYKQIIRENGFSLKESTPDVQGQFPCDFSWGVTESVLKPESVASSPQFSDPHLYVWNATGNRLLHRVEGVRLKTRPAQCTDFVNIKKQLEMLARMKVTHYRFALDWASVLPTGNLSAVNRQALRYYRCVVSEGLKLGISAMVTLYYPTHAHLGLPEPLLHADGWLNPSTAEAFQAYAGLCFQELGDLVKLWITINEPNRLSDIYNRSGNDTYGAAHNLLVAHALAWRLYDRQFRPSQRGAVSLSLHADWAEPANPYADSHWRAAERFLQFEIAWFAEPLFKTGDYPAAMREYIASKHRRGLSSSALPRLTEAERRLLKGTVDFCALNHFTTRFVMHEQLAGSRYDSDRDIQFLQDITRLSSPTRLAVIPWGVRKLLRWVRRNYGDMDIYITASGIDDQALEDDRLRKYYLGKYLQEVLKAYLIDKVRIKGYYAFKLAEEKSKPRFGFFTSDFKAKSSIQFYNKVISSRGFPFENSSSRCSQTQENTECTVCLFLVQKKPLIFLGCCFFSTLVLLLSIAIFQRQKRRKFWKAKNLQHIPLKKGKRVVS


Target: T1, human β-Klotho
Test: cell-based or functional assay

Binder	ERK phosphorylation HEK-293 cells expressing β-Klotho EC50 values
20 kDa PEG-FGF-21 P(5)TSSP mutant conjugate (ligand, GalNAc-SA-PEG-20 kDa (glycoPEG) on the introduced threonine 6) MHPIPTSSPLLQFGGQVRQRYLYTDDAQQTEAHLEIREDGTVGGAADQSPESLLQLKALKPGVIQILGVKTSRFLCQRPDGALYGSLHFDPEACSFRELLLEDGYNVYQSEAHGLPLHLPGNKSPHRDPAPRGPARFLPLPGLPPALPEPPGILAPQPPDVGSSDPLSMVGPSQGRSPSYAS	293 nM
20 kDa PEG-FGF-21 P(156)TP mutant conjugate (ligand, GalNAc-SA-PEG-20 kDa (glycoPEG) on the introduced threonine 157) MHPIPDSSPLLQFGGQVRQRYLYTDDAQQTEAHLEIREDGTVGGAADQSPESLLQLKALKPGVIQILGVKTSRFLCQRPDGALYGSLHFDPEACSFRELLLEDGYNVYQSEAHGLPLHLPGNKSPHRDPAPRGPARFLPLPGLPPALPEPPGILAPTPPDVGSSDPLSMVGPSQGRSPSYAS	109 nM
30 kDa PEG-FGF-21 P(172)TQGAS mutant conjugate (ligand, GalNAc-SA-PEG-30 kDa (glycoPEG) on the introduced threonine 173) MHPIPDSSPLLQFGGQVRQRYLYTDDAQQTEAHLEIREDGTVGGAADQSPESLLQLKALKPGVIQILGVKTSRFLCQRPDGALYGSLHFDPEACSFRELLLEDGYNVYQSEAHGLPLHLPGNKSPHRDPAPRGPARFLPLPGLPPALPEPPGILAPQPPDVGSSDPLSMVGPTQGASPSYAS	177 nM
30 kDa PEG-FGF-21 P(5)TSSP mutant conjugate (ligand, GalNAc-SA-PEG-30 kDa (glycoPEG) on the introduced threonine 6) MHPIPTSSPLLQFGGQVRQRYLYTDDAQQTEAHLEIREDGTVGGAADQSPESLLQLKALKPGVIQILGVKTSRFLCQRPDGALYGSLHFDPEACSFRELLLEDGYNVYQSEAHGLPLHLPGNKSPHRDPAPRGPARFLPLPGLPPALPEPPGILAPQPPDVGSSDPLSMVGPSQGRSPSYAS	> 3000 nM

Other lines, results leading:

ERK phosphorylation HEK-293 cells expressing β-Klotho EC50 values	Binder
86 nM	20 kDa PEG-FGF-21 P(172)TQGAS mutant conjugate (ligand, GalNAc-SA-PEG-20 kDa (glycoPEG) on the introduced threonine 173) MHPIPDSSPLLQFGGQVRQRYLYTDDAQQTEAHLEIREDGTVGGAADQSPESLLQLKALKPGVIQILGVKTSRFLCQRPDGALYGSLHFDPEACSFRELLLEDGYNVYQSEAHGLPLHLPGNKSPHRDPAPRGPARFLPLPGLPPALPEPPGILAPQPPDVGSSDPLSMVGPTQGASPSYAS
188 nM	30 kDa PEG-FGF-21 P(156)TP mutant conjugate (ligand, GalNAc-SA-PEG-30 kDa (glycoPEG) on the introduced threonine 157) MHPIPDSSPLLQFGGQVRQRYLYTDDAQQTEAHLEIREDGTVGGAADQSPESLLQLKALKPGVIQILGVKTSRFLCQRPDGALYGSLHFDPEACSFRELLLEDGYNVYQSEAHGLPLHLPGNKSPHRDPAPRGPARFLPLPGLPPALPEPPGILAPTPPDVGSSDPLSMVGPSQGRSPSYAS
